Data published in patent US20060088890A1.

Key:
[1] = molecular target: angiotensin converting enzyme (ACE) (human) (UniProt P12821); experiment: indirect immunofluorescence flow cytometry, K562 cells, BB9 at 20 µg/mL; grade = proportion of positive cells
[2] = molecular target: angiotensin converting enzyme (ACE) (human) (UniProt P12821); experiment: indirect immunofluorescence flow cytometry, MEG-01 cells, BB9 at 20 µg/mL; grade = proportion of positive cells
[3] = molecular target: angiotensin converting enzyme (ACE) (human) (UniProt P12821); experiment: indirect immunofluorescence flow cytometry, MCF-7 cells, BB9 at 20 µg/mL; grade = proportion of positive cells
[4] = molecular target: angiotensin converting enzyme (ACE) (human) (UniProt P12821); experiment: indirect immunofluorescence flow cytometry, UT7 cells, BB9 at 20 µg/mL; grade = proportion of positive cells
[5] = molecular target: angiotensin converting enzyme (ACE) (human) (UniProt P12821); experiment: indirect immunofluorescence flow cytometry, KG-1 cells, BB9 at 20 µg/mL; grade = proportion of positive cells
[6] = molecular target: angiotensin converting enzyme (ACE) (human) (UniProt P12821); experiment: indirect immunofluorescence flow cytometry, U937 cells, BB9 at 20 µg/mL; grade = proportion of positive cells
[7] = molecular target: angiotensin converting enzyme (ACE) (human) (UniProt P12821); experiment: indirect immunofluorescence flow cytometry, RC2A cells, BB9 at 20 µg/mL; grade = proportion of positive cells
[8] = molecular target: angiotensin converting enzyme (ACE) (human) (UniProt P12821); experiment: indirect immunofluorescence flow cytometry, Nalm-6 cells, BB9 at 20 µg/mL; grade = proportion of positive cells
[9] = molecular target: angiotensin converting enzyme (ACE) (human) (UniProt P12821); experiment: indirect immunofluorescence flow cytometry, HEL-DR cells, BB9 at 20 µg/mL; grade = proportion of positive cells
[10] = molecular target: angiotensin converting enzyme (ACE) (human) (UniProt P12821); experiment: indirect immunofluorescence flow cytometry, MG63 cells, BB9 at 20 µg/mL; grade = proportion of positive cells
[11] = molecular target: angiotensin converting enzyme (ACE) (human) (UniProt P12821); experiment: indirect immunofluorescence flow cytometry, dermal fibroblasts, BB9 at 20 µg/mL; grade = proportion of positive cells
[12] = molecular target: angiotensin converting enzyme (ACE) (human) (UniProt P12821); experiment: indirect immunofluorescence flow cytometry, HL60 cells, BB9 at 20 µg/mL; grade = proportion of positive cells
[13] = molecular target: angiotensin converting enzyme (ACE) (human) (UniProt P12821); experiment: indirect immunofluorescence flow cytometry, Hi MEG cells, BB9 at 20 µg/mL; grade = proportion of positive cells

Sequence of UniProt P12821 (P12821 30-1306): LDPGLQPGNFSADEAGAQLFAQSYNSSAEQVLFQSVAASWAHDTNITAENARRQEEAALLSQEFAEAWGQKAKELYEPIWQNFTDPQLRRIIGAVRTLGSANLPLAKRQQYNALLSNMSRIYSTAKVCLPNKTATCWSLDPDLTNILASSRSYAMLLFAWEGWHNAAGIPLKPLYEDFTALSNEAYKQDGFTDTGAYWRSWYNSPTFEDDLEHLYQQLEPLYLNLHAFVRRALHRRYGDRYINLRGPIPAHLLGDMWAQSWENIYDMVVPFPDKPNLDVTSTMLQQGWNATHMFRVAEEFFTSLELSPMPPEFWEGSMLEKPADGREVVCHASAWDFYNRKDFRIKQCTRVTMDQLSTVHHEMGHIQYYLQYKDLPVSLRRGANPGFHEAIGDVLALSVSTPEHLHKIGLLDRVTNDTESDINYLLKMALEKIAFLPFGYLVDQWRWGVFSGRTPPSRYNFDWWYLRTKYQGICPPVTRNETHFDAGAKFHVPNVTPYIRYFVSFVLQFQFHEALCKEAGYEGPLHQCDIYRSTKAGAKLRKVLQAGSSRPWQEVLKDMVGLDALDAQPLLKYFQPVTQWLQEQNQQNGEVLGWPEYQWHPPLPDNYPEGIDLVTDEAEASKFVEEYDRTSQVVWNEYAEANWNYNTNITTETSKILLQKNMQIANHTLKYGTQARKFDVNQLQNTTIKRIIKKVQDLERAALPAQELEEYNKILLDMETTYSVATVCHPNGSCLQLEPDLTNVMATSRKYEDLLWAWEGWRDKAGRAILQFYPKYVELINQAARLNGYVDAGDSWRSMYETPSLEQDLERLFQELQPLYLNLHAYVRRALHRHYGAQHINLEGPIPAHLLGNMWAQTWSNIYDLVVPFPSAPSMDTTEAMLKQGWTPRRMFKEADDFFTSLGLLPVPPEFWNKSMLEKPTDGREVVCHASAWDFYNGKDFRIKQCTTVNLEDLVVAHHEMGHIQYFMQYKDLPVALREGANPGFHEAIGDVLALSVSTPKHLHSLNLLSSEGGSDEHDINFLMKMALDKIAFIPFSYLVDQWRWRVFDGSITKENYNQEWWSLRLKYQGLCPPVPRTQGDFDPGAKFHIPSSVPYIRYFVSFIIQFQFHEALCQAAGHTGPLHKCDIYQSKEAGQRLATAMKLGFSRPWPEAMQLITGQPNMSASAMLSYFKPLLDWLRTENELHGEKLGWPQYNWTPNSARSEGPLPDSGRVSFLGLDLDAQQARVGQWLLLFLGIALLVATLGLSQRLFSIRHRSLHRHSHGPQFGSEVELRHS

monoclonal antibody BB9 showed a proportion of BB9 positive cells [1] of 35 to 80%, a proportion of BB9 positive cells [2] of 35 to 80% and a proportion of BB9 positive cells [3] of 5 to 35%. For the same substance, the proportion of BB9 positive cells [4] was 35 to 80%, the proportion of BB9 positive cells [5] was 5 to 35% and the proportion of BB9 positive cells [6] was 5 to 35%. For the same substance, the proportion of BB9 positive cells [7] was 5 to 35%, the proportion of BB9 positive cells [8] was 5 to 35% and the proportion of BB9 positive cells [9] was 35 to 80%. It also gave a proportion of BB9 positive cells [10] of 35 to 80%, a proportion of BB9 positive cells [11] of 80 to 100% and a proportion of BB9 positive cells [12] of 35 to 80%. For the same substance, the proportion of BB9 positive cells [13] was 5 to 35%.
